The source of these data is the RNAGym collection of RNA variant scans (doi:10.7554/elife.80360).

B1: HDV Ribozyme (parent)
chain: GGCCGGCAUGGUCCCAGCCUCCUCGCUGGCGCCGGCUGGGCAACAUUCCGAGGGGACCGUCCCCUCGGUAAUGGCGAAUGGGACCCA

In this data set the parent is B1. The experiment in a line: self-cleavage, relative activity (ratio to wild type); higher = more cleavage; co-transcriptional.
For GGCCGGCAUGGUCCCAGCCUCCUCGCUGCCGCCGGCUGGGCAACAUCCCGAGGGGACCGUCCCCUCGGUAAUGGCGAAUGGGACCCA [G29C U47C], the self-cleavage came to 0.0554.

Regarding GGCCGGCAUGGUCCCAGCCUCUUCGCUGGCGCCGGCUGGGCAACAUUCCGGGGGGACCGUCCCCUCGGUAAUGGCGAAUGGGACCCA [C22U A51G], the self-cleavage turned out to be 0.721.

With GGCCGGCAUGGUCCCAGCCUCCUCGCUGGCGCCGGCUGGGCAACAUUCCGAGGUGACCGUCCCCUCGGUAAUGGCGAACGGGACCCA [G54U U79C], the self-cleavage was determined as 0.513.

For the variant GGCCGGCAUGGUCCCAGCCUCCUCGCUGGCGCCGGCUGGGCAACAUUCCGAGGGGACCGUCGCCUCGGGAAUGGCGAAUGGGACCCA [C62G U69G], the self-cleavage was 0.804.

On to GGCCGGCAUGGUCCCAGCCUCCCCGCUGGCGCCGUCUGGGCAACAUUCCGAGGGGACCGUCCCCUCGGUAAUGGCGAAUGGGACCCA [U23C G35U], for which the self-cleavage stood at 0.354.

Take GGCCGGCAUGGUCCGAGCCUCCUCGCUGGCGCCGGCUGGGCAACAUUCCGAGGGGACCGUACCCUCGGUAAUGGCGAAUGGGACCCA [C15G C61A]: the self-cleavage is 0.516.

Turning to GUCCGGGAUGGUCCCAGCCUCCUCGCUGGCGCCGGCUGGGCAACAUUCCGAGGGGACCGUCCCCUCGGUAAUGGCGAAUGGGACCCA [G2U C7G], the self-cleavage is 0.

Turning to GGCCGGCAUGGGCCCAGCCUCCUCGUUGGCGCCGGCUGGGCAACAUUCCGAGGGGACCGUCCCCUCGGUAAUGGCGAAUGGGACCCA [U12G C26U], the self-cleavage turned out to be 0.776.

With GGCCGGCAUGGUCCCAGCCUCCUCGCUGGCGCCGGCUGGGCAACAAUCCGAGAGGACCGUCCCCUCGGUAAUGGCGAAUGGGACCCA [U46A G53A], the self-cleavage worked out at 0.741.

Take GGCCGGCAUGGUCCCAGCCUCCUCGCUGGCGCCGGCUGGGCAACAUUCCGAGGGGACCGUCCCCUCCGUAAUGGCGAAUGGGAUCCA [G67C C84U]: the self-cleavage was determined as 0.523.

With GGCCGGCAUGGUCCCAGCCUCCUCGCUGGCGCCGGCUGGGCAACAUUCCGAGUGAACCGUCCCCUCGGUAAUGGCGAAUGGGACCCA [G53U G55A], the self-cleavage came out at 1.18.

As for GGCCGGCAUGGUCCCAGCCUCCUCGCUGGCGCCGGCUGGUCAACAUUCCGAGGGGACCGUCCCCUCGGGAAUGGCGAAUGGGACCCA [G40U U69G], the self-cleavage was found to be 0.727.

On to GUCCGGCAUGGUCUCAGCCUCCUCGCUGGCGCCGGCUGGGCAACAUUCCGAGGGGACCGUCCCCUCGGUAAUGGCGAAUGGGACCCA [G2U C14U], for which the self-cleavage came to 0.0468.

In the case of GGCCGGCAUGUUCCCAGCCUCCUCGCUGGCGCCGGCUGGGCUACAUUCCGAGGGGACCGUCCCCUCGGUAAUGGCGAAUGGGACCCA [G11U A42U], the self-cleavage came to 0.0852.

On to GGCCGGCAUGGUCCCACCCUCCUCGCUGGCGCCGGCUGGGCAACAUUCCGAGGGGACCGUCCCCUCGGUAAUGGCGGAUGGGACCCA [G17C A77G], for which the self-cleavage amounted to 0.0615.

For GGCCGGCAUGGUCCCAGCCUCCUCGCUGGCGCCGGCUGGGCAACAUUCCGAGGAGACCGUCCCCUCGGUAAUGGCGAAUGGGUCCCA [G54A A83U], the self-cleavage came to 0.509.

With GGCCGCCAUGGUCCCAGCCUCCUCGCUGGCCCCGGCUGGGCAACAUUCCGAGGGGACCGUCCCCUCGGUAAUGGCGAAUGGGACCCA [G6C G31C], the self-cleavage amounted to 0.399.

GGCCGGCAUGGUCCCAGCCUCCUCGGUGGCGCCGGCUGUGCAACAUUCCGAGGGGACCGUCCCCUCGGUAAUGGCGAAUGGGACCCA [C26G G39U]: the self-cleavage was determined as 0.324.

On to GGCCGGCAUGGUCCCAGCCUCCUCGCUGGCUCCGGCUGGGCAACAUUCCGAGGGGACCGUCCCCUCGGUAAUGGCUAAUGGGACCCA [G31U G76U], for which the self-cleavage is 0.585.

For the variant GGCCAGCAUGGUCCCAGCCUCCUCGCUGGCGCCGGCUGGGCAACAUUCCGAGGGGACCGUCCCCUCGGUAAUGGCGAAUGGGACCGA [G5A C86G], the self-cleavage was determined as 0.13.

On to GACCGGCAUGGUCCCAGCCUCCUCGCAGGCGCCGGCUGGGCAACAUUCCGAGGGGACCGUCCCCUCGGUAAUGGCGAAUGGGACCCA [G2A U27A], for which the self-cleavage stood at 0.0997.

In the case of GGCCGGCAUGGUCCCAGCCUCCUCGCUGGCGCCGGCUGGGCAACAUGCCGAGGGGACCGUCCCCCCGGUAAUGGCGAAUGGGACCCA [U47G U65C], the self-cleavage worked out at 0.923.

As for GGCCGGCAUGGUCCCAGCCUCCUCGCUGGCGCCGGCUGGGAAACAUUCCGAGGGAACCGUCCCCUCGGUAAUGGCGAAUGGGACCCA [C41A G55A], the self-cleavage was determined as 0.937.

For the variant GGCCGGCAUGGUCCCAGCCUCCUCGCUGCCGCCGGCUGGGCAACAUUCCGAGGGGACCGUCCCCUCGGUAAUGGCGAAUGGGACCCA [G29C], the self-cleavage was 0.1.

Regarding GGCCGGCAUGGUCCCAGCCUCCUCGCUGCCGCCGGCUGGGCAACAUUCCGAGGGGACCGUCCCCUCGGCAAUGGCGAAUGGGACCCA [G29C U69C], the self-cleavage was determined as 0.

For the variant GGCCGGCAUUGUUCCAGCCUCCUCGCUGGCGCCGGCUGGGCAACAUUCCGAGGGGACCGUCCCCUCGGUAAUGGCGAAUGGGACCCA [G10U C13U], the self-cleavage was 0.122.

For the variant AGCCGGCAUGGUCCCAGCCUCCUCGCUGGCGCCGGCUGGGCAACAUUCCGAGGGGACCGUCCCCUCGGUAAUGGCGAAUGGGCCCCA [G1A A83C], the self-cleavage worked out at 0.138.

For GGCCGGCAUGGUCCCAGCCUCCUCGUUGUCGCCGGCUGGGCAACAUUCCGAGGGGACCGUCCCCUCGGUAAUGGCGAAUGGGACCCA [C26U G29U], the self-cleavage is 0.136.

Regarding GGCCGGGGUGGUCCCAGCCUCCUCGCUGGCGCCGGCUGGGCAACAUUCCGAGGGGACCGUCCCCUCGGUAAUGGCGAAUGGGACCCA [C7G A8G], the self-cleavage is 0.519.

As for GGCCGGCAUGGUCCCAGCCUCCUCGCUGGCGCCGGCUGGGCAACAUUCCGAGGGGACCGUCCCCUCGGUAAUGGCGAAGGGGUCCCA [U79G A83U], the self-cleavage worked out at 0.122.

For the variant GGCCGACAUGGUCCCAGCCUCCUCGCUGGCGCCGGCUGGGCAACAUUCCGAGGGGACCGUCCGCUCGGUAAUGGCGAAUGGGACCCA [G6A C63G], the self-cleavage was determined as 0.601.

With GGCCGGCAUGGUCCCAGCCUCCUCGCUGGCGCCGGCUGGGCAACAUUCCGAGGGGACCGUCCCCUCGGUUAUGUCGAAUGGGACCCA [A70U G74U], the self-cleavage was 0.499.
